Test results reported in the RNAGym collection of RNA variant scans (doi:10.1073/pnas.2313332121).
For part of these data: Fewer inactive variants are shown than the library holds.

B1: TPR t1 (parent)
chain: GACCAAUCUGCCCUCAGAGCUCGAGAACAUCUUCGGAUGCAGAGGAGGCAGGCUUCGGUGGCGCGAUAGCGCCAACGUCCUCAACCUCCAAUGCAUCCCACCACAUGAUGAUGCCUGAAGAGCCUUGGUUUUUUG
B2: TPR 5TU (parent)
chain: GGAUCUUCUCGAUCUAACAAAAAAGACAAAUCUGCCACAAAGCUUGAGAGCAUCUUCGGAUGCAGAGGCGGCAGCCUUCGGUGGCGCGAUAGCGCCAACGUUCUCAACUAUGACACGCAAAACGCGUGCUCCGUUGAAUGGAGUUUAUCAUG

Variants of: B1
Test: polymerase ribozyme fitness, log enrichment relative to wild type (log ratio); higher = more active; in vitro selection for triplet polymerase activity
How it was run: (§1)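 The heterodimeric triplet polymerase ribozyme's subunits were each mutagenized into PCR-built libraries and transcribed. Every library was selected once, in triplicate, by annealing with a biotinylated primer, the partner subunit and triplets, incubating frozen at −7 °C, gel-excising extended constructs, capturing on streptavidin beads and running RT-PCR. Input and output libraries were Illumina-sequenced, with genotypes kept only at ≥10 input reads and ≥1 read per output. Fitness, from inverse-variance-weighted replicate averages, is the base-2 logarithm of genotype enrichment over wild-type enrichment.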

Row | Variant | polymerase ribozyme fitness (log ratio)
1 | G120A U125A | 1.26
2 | G117U G120A U132A | -1.33
3 | G120A C123G | 1.22
4 | C114G G128A U130A | -5.53
5 | G128U | -1.57
6 | G128A | -1.65
7 | G128C | -2.23

Variants of: B2
Test: as above
How it was run: as §1

Row | Variant | polymerase ribozyme fitness (log ratio)
8 | A3G C57A U90A A91C C93U G94C C132U G140U A142U | ≤ -4.2
9 | A3G C51G U56A G92U C118U U145C | ≤ -4.2
10 | A3C G11C C76U C93A | -3.68
11 | A3C U9A A73U U144A C149G | ≤ -4.2
12 | A3G A39C | -3.26
13 | A3G C5G U7A G50U G86A C93U C96U | -0.354
14 | A3C C18G A30G C116G | ≤ -4.2
15 | A3G A19U G92U A113C | -3.43
16 | A3G A26C A60G | -2.26
17 | A3G A17U G34A C118G U146A C149A | ≤ -4.2
18 | A3G G94U U104C C129U U134A | ≤ -4.2
19 | A3C U9G U33G A49U G74U U77G C93G U104A | ≤ -4.2
20 | A3G C96U | -0.935
21 | A3C A16U A26U U55A | ≤ -4.2
22 | A3G G11A C14A C95G C96A C103G | ≤ -4.2
23 | A3G C85A | -1.17
24 | A3C U31G U53A U55A C96A A115G G126A A142C | ≤ -4.2
25 | A3G C96A A98U U102C | -2.26
26 | A3G A12G A52G G84A C116G | -1.71
27 | A3C U13C C51U C57U C87U C96G U139C | ≤ -4.2
28 | A3C C5G C14G A24G A29U C32A U56G G86C U90G C116G A142C | ≤ -4.2
29 | A3C C5G G92U U134C U135A | -1.39
30 | A3C C14G C103G A119G | ≤ -4.2
31 | A3C C5A G11A U45A U55A G80A C96A | ≤ -4.2
32 | A3G A22C | -0.593
33 | A3G C8G A28G G46U G50A G67C G92C A107U U151G | ≤ -4.2

Row | Variant | polymerase ribozyme fitness (log ratio)
34 | A3C C10A U82C | -2.75
35 | A3G A19G A28U C99U U130G | ≤ -4.2
36 | A3C C8U C27U G68A C87U A91C C93G | ≤ -4.2
37 | A3C U13C A28G C79G G80C G94A G141C | -4.17
38 | A3G C72U C85U U146C | -0.724
39 | A3G A37C G80U | -3.88
40 | A3G C57A C87A | ≤ -4.2
41 | A3G G42A A49C C63U C69G C85G A115C | ≤ -4.2
42 | A3G C35U C96A A106C A138C A142G | ≤ -4.2
43 | A3G A22G A24C A49U C76A C131G | ≤ -4.2
44 | A3G A21C A37C C63U G74C C87G G128C G141A | ≤ -4.2
45 | A3C A20G C85A | -2.54
46 | A3G U6A A40G C87A | ≤ -4.2
47 | A3G A20G | -0.654
48 | A3C A37G A91C A138C G140U | ≤ -4.2
49 | A3C G34C C43U A91G | ≤ -4.2
50 | A3C U6G A60G G83C | -3.62
51 | A3C G83A G136C | -3.35
52 | A3G C8G C35A U90G C95U C116G G152A | -4.12
53 | A3C U15A C85U | 0.611
54 | A3C A29U A91U | ≤ -4.2
55 | A3G G83U | -0.444
56 | A3C U31G C57G | -1.39
57 | A3G G42C C69G C85G C118U C129U | ≤ -4.2
58 | A3G A16U C18U A22C G25C C43U A49C G68C A106C U145C | ≤ -4.2
59 | A3G C27A G88C A122C A138U | ≤ -4.2

Row | Variant | polymerase ribozyme fitness (log ratio)
60 | A3G A23C A26G U45A A52G G59A G80C A106C | ≤ -4.2
61 | A3C C93G | ≤ -4.2
62 | A3G G50A | -1.39
63 | A3C A23U G50C U55A C105U C116U C125U | ≤ -4.2
64 | A3C U56A C69U A91U | ≤ -4.2
65 | A3G C18G G83C U144C | -2.47
66 | A3G G94A C114U | -2.39
67 | A3C U45A G59U G92U | ≤ -4.2
68 | A3G G11C G34C A41G C87A | -4.04
69 | A3C A29C A37U C57U C87U A142G U148C | ≤ -4.2
70 | A3G C51G A52C G84U U101G A107G | ≤ -4.2
71 | A3C A37U A40C U44A C132A | ≤ -4.2
72 | A3G A16C A22G A73G G84U C123U G141U | ≤ -4.2
73 | A3G C54A C95U | -2.06
74 | A3C U33C U44A U56G C85G | ≤ -4.2
75 | A3C A19G A21U U45A U82C G92C U139G U144A | ≤ -4.2
76 | A3C C85A | -2.55
77 | A3C C5A A20U C57A G62C U78G | ≤ -4.2
78 | A3G A19U C27A U82A C93G U111G | ≤ -4.2
79 | A3C A22U G86A G92U | -2.91
80 | A3C A19U C57G G94A G141A | -2.02
81 | A3C G11U C36G A39U A91U C114U U127G U134G G140C | ≤ -4.2
82 | A3C | -0.142
83 | A3G | -0.234
84 | A3G A39U G83U G84U C114U A119G | ≤ -4.2
